Target: T1, RNase P protein (SPP, SP protein) (Staphylococcus aureus) (UniProt A8YYS2)
T1 sequence: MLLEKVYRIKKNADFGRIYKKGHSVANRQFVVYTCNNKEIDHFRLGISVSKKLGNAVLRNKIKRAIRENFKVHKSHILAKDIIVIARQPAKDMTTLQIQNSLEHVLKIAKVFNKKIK
Test: filter

## GUUCUGAUAUUUUGGGUAAUCGCUAUAUUAUAUAGAGGAAAGUCCAUGCUCACACAGUCUGAGAUGAUUGUAGUGUUCGUGCUUGAUGAAACAAUAAAUCAAGGCAUUAAUUUGACGGCAAUGAAAUAUCCUAAGUCUUUCGAUAUGGAUAGAGUAAUUUGAAAGUGCCACAGUGACGUAGCUUUUAUAGAAAUAUAAAAGGUGGAACGCGGUAAACCCCUCGAGUGAGCAAUCCAAAUUUGGUAGGAGCACUUGUUUAACGGAAUUCAACGUAUAAACGAGACACACUUCGCGAAAUGAAGUGGUGUACGACAGAUGGUUAUCACCUGAGUACCAGUGUGACUAGUGCACGUGAUGAGUACGAUGGAACAGAACAUGGCUUAUAGAAAUAUCACUACUA [S. aureus RNase P RNA (SP RNA)]
20 mM K-Hepes pH 8.0, 0.01% NP40, 400 mM NH4OAc, 10 mM MgCl2, 5% glycerol, at least three experiments
  Kd: 8 nM
Binding constant of the complex stated in summary, filter binding and gel shift, differs from 8 nM in p322
  Kd: 20 nM
